According to patent US8715970B2, “Enzymatically catalyzed method of preparing mono-acylated polyols” (BASF SE, priority 2009, dated 2014):
Changes are numbered by the printed parent chain. In names and notes the source's numbering stands.

B1: WT: non-mutated Candida antarctica lipase B (CALB), SEQ ID NO: 2, immobilized on carrier beads (protein, listed as Candida antarctica)
chain: LPSGSDPAFSQPKSVLDAGLTCQGASPSSVSKPILLVPGTGTTGPQSFDSNWIPLSAQLGYTPCWISPPPFMLNDTQVNTEYMVNAITTLYAGSGNNKLPVLTWSQGGLVAQWGLTFFPSIRSKVDRLMAFAPDYKGTVLAGPLDALAVSAPSVWQQTTGSALTTALRNAGGLTQIVPTTNLYSATDEIVQPQVSNSPLDSSYLFNGKNVQAQAVCGPLFVIDHAGSLTSQFSYVVGRSALRSTTGQARSADYGITDCNPLPANDLTPEQKVAAAALLAPAAAAIVAGPKQNCEPDLMPYARPFAVGKRTCSGIVTP
modifications: immobilized on carrier beads
B2: T40A: CALB mutant with single mutation Thr40Ala (SEQ ID NO: 4) (protein)
chain: B1 chain with T40X
modifications: T40 Mutant

Legend:
Format in all cases: biochemical
[1] = Enzyme-catalyzed acylation of 1,4-butanediol with ethyl acetate as acyl donor (Example 2); conditions: for Conversion at 3:1 (monoester:diester) / Conversion at 9:1 (monoester:diester) / Maximum monoester yield: 1,4-butanediol 20 mM in ethyl acetate; for Maximum monoester yield: 29° C.
Experimental: (§1) Each diol was dissolved to a concentration of 20 mM together with 5 mM of 3-hexanone in ethyl acetate, ≧99% from Fluka, which was used as acyl donor and solvent. Reactions were started by adding 4 ml reaction solution to 20 mg enzyme carrier beads loaded with either wild-type or T40A mutated CALB. Reactions were run at 29° C. on a HLC rotating thermo block. Aliquots of 50 μl were taken, filtered through wool in a Pasteur pipette and diluted with 50 μl ethyl acetate prior to analysis. The 3-hexanon used as internal standard were present in the reaction solution throughout both reaction and analysis.
(§2) 5 mM 3-hexanone was used as internal standard in the reaction mixtures together with 20 mM diol. Aliquots were taken during the reaction by taking 50 μl of reaction sample. The samples were filtered though wool together with 50 μl ethyl acetate, thereby any remaining enzyme were removed and the reaction samples were diluted by a factor of 2 prior to analysis.
(§3) The reactions catalyzed by the T40A-mutant were rerun with 100 mg enzyme carrier beads for determination of maximum monoester yield. The reactions with 2-methyl-1,3-propanediol and 2-phenyl-1,3-propanediol were rerun at 100 mM concentration of diol and 50 mg enzyme carrier beads, both with CALB wild type and CALB T40A-mutant. This was done in order to determine the enantiomeric excess.
(§4) All reactions were analyzed on GC, Hewlett Packard 5890 series II. Two different 25 m×0.32 mm WCOT fused silica columns were used, depending on the different substrates and products that were analyzed. A polar GC-column with CP Chirasil-Dex CB coating was used for the reactions with 1,2-ethanediol and 1,3-propanediol. A non-polar GC-column with CP-SIL 5CB coating was used for the reactions with 1,4-butanediol, 2-methyl-1,3-propanediol and 2-phenyl-1,3-propanediol.
(§5) The response factor for each diol was determined in relationship to 3-hexanone. When all diol and mono-ester had converted to di-ester, the response factor for the di-ester could be determined in relationship to […]. The concentration of mono-ester in each reaction was determined by subtracting the concentration of di-ester from the starting concentration of diol.
(§6) A great difference in concentration between acyl donor and diol was accomplished in the reactions by using ethyl acetate as solvent and acyldonor and a diol concentration of 20 mM. Therefore the reactions was considered to irreversible, following the reaction scheme:
(§7) [formula] A, B and C corresponds to diol, monoester and diester, respectively. k1 and k2 respectively corresponds to the reaction rates of the acylation of diol and monoester.
(§8) The reaction rates are dependent on enzyme concentrations and the kcat/KM towards the substrates. By fitting the concentrations measured over time into the equations and using the enzyme concentration determined by active site titration, the following results were obtained.

[2] = Enzyme-catalyzed acylation of 2-methyl-1,3-propanediol with ethyl acetate as acyl donor (Example 2); conditions: for Conversion at 3:1 (monoester:diester) / Maximum monoester yield: 2-Me-1,3-propanediol 20 mM in ethyl acetate; for Maximum monoester yield: 29° C.
Experimental: as §1, §2, §3, §4, §5, §6, §7, §8

[3] = Active site titration with inhibitor and activity measurement after inhibition (Example 1); conditions: for Share of immobilized enzyme inhibited (activity measurements after inhibition): 50 μM inhibitor in acetonitrile, activity with 1-butanol and vinyl butyrate in MTBE
Experimental: The amount of enzyme loaded on the carriers was confirmed by active site titration using the inhibitor methyl 4-methylumbelliferyl hexylphosphonate. Inhibitor from an ampoule stored in a freezer (−20° C.) was dissolved to a concentration of 50 μM in acetonitrile. The inhibitor was previously synthesized and used for active site titration of CALB as described in Magnusson, A. O., et al., Creating space for large secondary alcohols by rational redesign of Candida antarctica lipase B. Chembiochem, 2005. 6(6): p. 1051-1056 and Rotticci, D., et al., An active-site titration method for lipases. Biochimica Et Biophysica Acta-Molecular and Cell Biology of Lipids, 2000. 1483(1): p. 132-140.
Inhibition reactions were run in three separate vials each containing 50 mg enzyme carrier beads with immobilized CALB wild type and T40A-mutant. The wild type was run in one of the reaction vials, and the other two contained T40A-mutant. The enzymes were incubated in 1 ml of 50 μM inhibitor dissolved in acetonitrile. Each vial were sealed and covered in aluminium foil, to prevent light from damaging the fluorophore, and stored in continuous end over end. Aliquots were taken after 2, 5 and 9 days. […] Analysis was preformed by fluorescence using a Perkin Elmer LS 50 B fluorimeter. […] Fluorescence was also measured in two different control samples. Inhibitor, 50 μM in acetonitrile, was incubated without enzyme for control of background fluorescence from spontaneous hydrolysis of the methyl 4-methylumbelliferyl hexylphosphonate. In addition to this, 50 mg of each enzyme was incubated in acetonitrile without inhibitor for control of any background fluorescence from the immobilized enzyme. The total fluorescence from these samples was subtracted from the fluorescence measured in the inhibition reactions. […]
Remaining activity was measured after inhibition. […] For comparison, the reaction was repeated with the enzyme used for control of background fluorescence. […] The amounts of immobilized enzymes taken from the fluorescence controls used in the reactions were 2.8 mg of the wild type and 9.0 T40A. […]

[4] = 2-methyl-1,3-propanediol, ethyl acetate

| Molecule | Conversion at 3:1 (monoester:diester) [1] [%] | Conversion at 9:1 (monoester:diester) [1] [%] | Maximum monoester yield [1] [%] | Selectivity diol/monoester ([1]; 1,4-butanediol, ethyl acetate, listed as wild type) | Selectivity diol/monoester ([1]; 1,4-butanediol, ethyl acetate, listed as wild type CALB) | Conversion at 3:1 (monoester:diester) [2] [%] | Maximum monoester yield [2] [%] | Selectivity diol/monoester [2, 4] | Share of immobilized enzyme inhibited (activity measurements after inhibition) [3] [%] | Selectivity diol/monoester ([1]; 1,4-butanediol, ethyl acetate) | Selectivity ratio diol/monoester T40A/WT ([1]; 1,4-butanediol, ethyl acetate) | Selectivity diol/monoester ([1]; 1,4-butanediol, ethyl acetate, listed as T40A CALB) | Selectivity ratio diol/monoester T40A/WT [2, 4] | Selectivity diol/monoester ([2]; 2-methyl-1,3-propanediol, ethyl acetate, listed as T40A CALB) | Remaining activity after inhibition ([3]; 100 mM 1-butanol, 1 M vinyl butyrate in MTBE) |
| --- | --- | --- | --- | --- | --- | --- | --- | --- | --- | --- | --- | --- | --- | --- | --- |
| B1 | <5 | <5 | 25 | 0.63 | 0.6 | 30 | 42 | 1.5 | 83 | – | – | – | – | – | – |
| B2 | 64 | 26 | 49 | – | – | 55 | 55 | 2.6 | 21 | 1.8 | 2.9 | 1.9 | 1.7 | 2.5 | to low to measure |
